Measurements published in patent US20210198347A1 (Chugai, published 2021).

T1: Native proenzyme human C1s (Comptech A103) (human, UniProt P09871 16-688)
T1 construct: mature; Bought native protein; also called native human C1s Proenzyme; native human C1s proenzyme protein (CompTech)
T1 sequence (looked up): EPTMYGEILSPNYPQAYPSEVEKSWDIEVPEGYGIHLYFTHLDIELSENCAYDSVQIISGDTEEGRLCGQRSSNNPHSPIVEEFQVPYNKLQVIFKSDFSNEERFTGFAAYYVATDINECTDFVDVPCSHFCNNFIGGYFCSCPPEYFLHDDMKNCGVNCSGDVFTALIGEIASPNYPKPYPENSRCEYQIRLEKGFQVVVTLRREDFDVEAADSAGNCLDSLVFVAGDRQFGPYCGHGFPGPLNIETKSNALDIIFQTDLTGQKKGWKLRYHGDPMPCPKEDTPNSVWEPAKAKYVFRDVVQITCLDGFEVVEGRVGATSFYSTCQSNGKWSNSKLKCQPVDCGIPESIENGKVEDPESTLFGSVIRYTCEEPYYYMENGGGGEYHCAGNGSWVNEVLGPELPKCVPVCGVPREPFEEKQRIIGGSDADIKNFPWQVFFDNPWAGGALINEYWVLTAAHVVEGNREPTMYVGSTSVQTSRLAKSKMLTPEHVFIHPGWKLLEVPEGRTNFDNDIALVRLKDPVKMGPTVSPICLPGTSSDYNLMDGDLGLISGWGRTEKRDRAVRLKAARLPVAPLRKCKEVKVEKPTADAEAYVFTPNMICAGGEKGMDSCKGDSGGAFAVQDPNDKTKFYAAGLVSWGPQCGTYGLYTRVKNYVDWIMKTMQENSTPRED

T2: recombinant human C1s CCP1-CCP2-SP-His (human, UniProt P09871 292-688)
T2 construct: Truncated protein lacking the CUB1-EGF-CUB2 domain; also called human C1s CCP1-CCP2-SP M292-D688
T2 sequence: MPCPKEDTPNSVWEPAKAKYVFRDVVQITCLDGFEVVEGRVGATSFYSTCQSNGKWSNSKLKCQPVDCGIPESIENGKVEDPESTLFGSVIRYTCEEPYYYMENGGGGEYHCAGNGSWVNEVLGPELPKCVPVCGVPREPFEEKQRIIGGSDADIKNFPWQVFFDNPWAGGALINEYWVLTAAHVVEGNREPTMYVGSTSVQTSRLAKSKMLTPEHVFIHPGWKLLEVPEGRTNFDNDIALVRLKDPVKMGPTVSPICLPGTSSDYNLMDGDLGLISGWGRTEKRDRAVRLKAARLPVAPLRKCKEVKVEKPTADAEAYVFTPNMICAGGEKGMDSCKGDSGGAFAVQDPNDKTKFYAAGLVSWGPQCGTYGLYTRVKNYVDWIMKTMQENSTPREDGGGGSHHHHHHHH


Legend:
[1] = biological target: T1, Native proenzyme human C1s (Comptech …); test: SPR (BIACORE T200, 37 degrees C, pH 7.4), antibody captured by protein A/G, C1s 50 nM
Procedure: The binding specificities of the six C1s CUB1-EGF-CUB2 binders were determined at 37 degrees C. using BIACORE® T200 instrument (GE Healthcare). Recombinant Protein A/G (Pierce) was immobilized onto all flow cells of a CM4 sensor chip using an amine coupling kit (GE Healthcare). Antibodies and analytes were prepared in 7(+) buffer (20 mM ACES, 150 mM NaCl, 1.2 mM CaCl₂, 0.05% Tween 20, 0.005% NaN₃, pH 7.4). Each antibody was captured onto the sensor surface by protein A/G. Antibody capture levels were aimed at 100 resonance unit (RU). Native proenzyme human C1s (Comptech A103) (at 50 nM as a monomer) or recombinant human C1s CCP1-CCP2-SP-His (at 100 nM as a monomer) was injected, followed by dissociation. Sensor surface was regenerated each cycle with 10 mM Glycine-HCl pH 1.5. The six C1s CUB1-EGF-CUB2 binders bound to the native proenzyme human C1s, but not recombinant human C1s CCP1-CCP2-SP-His, which is a truncated protein lacking the CUB1-EGF-CUB2 domain.

[2] = biological target: T2, recombinant human C1s CCP1-CCP2-SP-His; test: SPR (BIACORE T200, 37 degrees C, pH 7.4, 1.2 mM CaCl2), antibody captured by protein A/G

binding result [1]	binding result [2]	Binder
binds	no binding (tested: 100 nM)	COS0637cc-SG1148 (antibody, human IgG1, kappa, V domains shown) VH: QSLEESGGRLVTPGTPLTLTCTASGFSLSAYAMNWVRQAPGKGLEWIGLIYGSGSTFYASWAKGRFTISKTSTTVDLKMTSLTTEDTATYFCARGRSVNYNSDFKLWGPGTLVTVSS VL: QVLTQTPSSVSAAVGGTVTINCQASQSLHDKKNLAWYQHKPGQRPNLLIYGASTLESGVPSRFKGSGSGTEYTLTISDLECDDAAAYYCQGEFSCSSADCNTFGGGTKVEIKR
binds	no binding (tested: 100 nM)	COS0631gg-SG1148 (antibody, human IgG1, kappa, V domains shown) VH: QSVEESGGRLVTPGTPLTLTCTVSGFSLSRYSMGWVRQAPGKGLEWIGIIYADGGAYYASWAKGRFTISKTSTTMDLKVTSPTTEDTATYFCARGQFINSNEFFNPWGPGTLVTVSS VL: QVLTQTASSVSAVVGGTVTINCQASQSLHNNKNLAWYQQKPGQPPRLLIYYASTLASGVSSRFKGSGSGTQFTLTISDLECDDAATYYCAGEFSCSNGDCNAFGGGTKVEIKR
